Reference: patent US6395479B1, “Androgen-metabolic gene mutations and prostate cancer risk” (University of Southern California, priority 1998, dated 2002)

T1: SRD5A2 (steroid 5α-reductase type II) (Homo sapiens, UniProt P31213, A49T/L89V)
T1 construct: expressed in transfected cells; host or cells: cos cells (electroporated; sonicated cell extracts)
T1 sequence (P31213 1-254 A49T/L89V): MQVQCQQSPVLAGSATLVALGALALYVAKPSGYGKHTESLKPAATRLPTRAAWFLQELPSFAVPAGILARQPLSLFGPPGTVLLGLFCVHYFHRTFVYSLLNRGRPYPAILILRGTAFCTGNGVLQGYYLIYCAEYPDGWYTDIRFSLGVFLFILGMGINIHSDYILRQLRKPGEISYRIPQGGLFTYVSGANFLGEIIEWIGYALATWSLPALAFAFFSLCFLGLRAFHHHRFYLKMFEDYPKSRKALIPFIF


Experiments:
[1] = system: SRD5A2 (steroid 5α-reductase type II); experiment: SRD5A2 activity in extracts of transfected cos cells: conversion of [14C] testosterone to [14C] dihydrotestosterone with NADPH; type: biochemical, human; conditions: for Vmax for testosterone to dihydrotestosterone conversion: normalized protein extracts of transfected cos cells, 37° C., cofactor NADPH
[2] = target: T1, SRD5A2 (steroid 5α-reductase type II); experiment: as above; type: biochemical; conditions: substrate testosterone

Molecule | Vmax for testosterone to dihydrotestosterone conversion [1] | testosterone concentration at which the enzyme is substrate inhibited [1] | apparent KM for testosterone compared to the normal enzyme [2]
normal enzyme: normal (wild type) steroid 5α-reductase type II from the SRD5A2 construct expressed in cos cells (protein, UniProt P31213 1-254, looked up) 3-oxo-5-alpha-steroid …: MQVQCQQSPVLAGSATLVALGALALYVAKPSGYGKHTESLKPAATRLPARAAWFLQELPSFAVPAGILARQPLSLFGPPGTVLLGLFCLHYFHRTFVYSLLNRGRPYPAILILRGTAFCTGNGVLQGYYLIYCAEYPDGWYTDIRFSLGVFLFILGMGINIHSDYILRQLRKPGEISYRIPQGGLFTYVSGANFLGEIIEWIGYALATWSLPALAFAFFSLCFLGLRAFHHHRFYLKMFEDYPKSRKALIPFIF | 1.3 nmol/min/mg | 1.5 µM | –
A49T enzyme: steroid 5α-reductase type II encoded by SRD5A2 cDNA with the A49T missense mutation, expressed in cos cells (protein, UniProt P31213 1-254, looked up, variant A49T) 3-oxo-5-alpha-steroid …: MQVQCQQSPVLAGSATLVALGALALYVAKPSGYGKHTESLKPAATRLPTRAAWFLQELPSFAVPAGILARQPLSLFGPPGTVLLGLFCLHYFHRTFVYSLLNRGRPYPAILILRGTAFCTGNGVLQGYYLIYCAEYPDGWYTDIRFSLGVFLFILGMGINIHSDYILRQLRKPGEISYRIPQGGLFTYVSGANFLGEIIEWIGYALATWSLPALAFAFFSLCFLGLRAFHHHRFYLKMFEDYPKSRKALIPFIF | 3.8 nmol/min/mg | 6 µM | higher KM for testosterone
